“Also recorded” adds a separate entry of the source. Where two headings read alike, the source gives them in different places. Where no end group is shown, it is not given here. [ ]: non-standard residue; d: D form. Cyt = cystine residue, as named in the source; pGlu = O=C1CC[C@@H](C(=O)O)N1
B1: KYLPGPLQ (complexin II fragment) (peptide)
peptide: KYLPGPLQ
notes: Purified from blood-free sheep cerebral cortex; synthetic peptide used in the assays; also called complexin fragment

Legend:
IRAP [1] = target: T1, IRAP (Homo sapiens, UniProt Q9UIQ6); assay: IRAP enzymatic activity, hydrolysis of L-leucine-β-naphthylamide (fluorescence); format: biochemical
T1 construct: expressed in transfected cells; host or cells: HEK 293T cells (solubilised membrane protein)
T1 sequence (Q9UIQ6 whole entry): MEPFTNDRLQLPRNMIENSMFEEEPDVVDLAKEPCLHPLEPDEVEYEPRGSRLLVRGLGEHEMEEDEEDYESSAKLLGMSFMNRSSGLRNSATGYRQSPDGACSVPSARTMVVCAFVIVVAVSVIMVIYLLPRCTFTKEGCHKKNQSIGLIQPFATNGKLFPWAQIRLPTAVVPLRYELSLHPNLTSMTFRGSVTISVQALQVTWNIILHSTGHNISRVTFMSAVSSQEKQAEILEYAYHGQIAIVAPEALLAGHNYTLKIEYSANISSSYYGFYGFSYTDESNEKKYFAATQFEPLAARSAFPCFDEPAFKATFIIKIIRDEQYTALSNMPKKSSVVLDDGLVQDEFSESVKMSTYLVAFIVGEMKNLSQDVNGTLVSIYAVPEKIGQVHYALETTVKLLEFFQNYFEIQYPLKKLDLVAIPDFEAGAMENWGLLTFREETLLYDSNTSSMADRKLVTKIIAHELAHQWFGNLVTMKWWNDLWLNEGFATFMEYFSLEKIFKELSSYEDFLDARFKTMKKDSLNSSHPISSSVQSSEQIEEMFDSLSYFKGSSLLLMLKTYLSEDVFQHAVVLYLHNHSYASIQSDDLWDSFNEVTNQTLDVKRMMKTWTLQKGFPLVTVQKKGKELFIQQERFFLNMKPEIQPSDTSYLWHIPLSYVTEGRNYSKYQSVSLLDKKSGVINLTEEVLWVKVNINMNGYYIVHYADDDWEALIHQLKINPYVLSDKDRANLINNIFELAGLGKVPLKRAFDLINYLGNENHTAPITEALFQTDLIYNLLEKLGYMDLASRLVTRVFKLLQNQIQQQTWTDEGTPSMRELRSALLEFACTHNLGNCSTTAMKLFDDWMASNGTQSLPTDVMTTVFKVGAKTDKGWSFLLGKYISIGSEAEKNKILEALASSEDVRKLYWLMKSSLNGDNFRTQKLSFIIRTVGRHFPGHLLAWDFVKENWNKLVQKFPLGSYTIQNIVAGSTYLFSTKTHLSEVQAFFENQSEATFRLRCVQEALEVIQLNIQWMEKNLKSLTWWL
Description: For example, Hek293 cells stably transfected with a eukaryotic expression vector expressing the AT4 receptor gene may be utilized. An example of this is the vector pcDNA-3 containing the cDNA encoding the full length AT4 receptor. Two assay systems are used, one for each spliced variant of the human AT4 receptor gene. The assay system involves the measurement of the rate of hydrolysis of L-leucyl β-naphthylamide by the AT4 receptor. The rate of hydrolysis by the transfected cells is followed by recording the increase in fluorescence (excitation at 340 nm, emission at 410 nm) using a purpose-designed fluorimeter. Test compounds are added to the assay system, and their effects on the hydrolysis of L-leucyl β-naphthylamide are a direct indicator of their modulation of AT4 receptor activity.
Crude membranes were prepared from HEK 293 cells stably transfected with pcDNA-3 containing the cDNA encoding the full length AT4 receptor/IRAP, using the same method as that described for bovine adrenal membranes. The membranes were solubilised in 50 mM Tris-HCl containing 1% Triton-X100 at 4° C. for 16 h. The IRAP enzymatic activity was determined by the hydrolysis of a synthetic substrate, L-leucine-β-naphthylamide, and monitored by the release of a fluorogenic product on a spectrophotometer set at excitation 340 nm and emission 410 nm. One hundred μM of the substrate was added to 10 μg of solubilised membranes, and the increase in fluorescence monitored for 10 min.
Samples were assayed 2-3 times in triplicate, except controls, which were performed 5 times in triplicate.

IRAP [2] = target: T1, IRAP; assay: Degradation of peptides by IRAP expressed in HEK 293T cells, HPLC with mass spectrometric detection; format: biochemical; settings: for Substrate disappearance over 4 hr: 37° C., hIRAP transfected HEK 293T membranes, (=UT) equals untransfected control cells; for Products Identified: incubation at 37° C. with solubilized membrane protein from hIRAP transfected HEK 293T cells; for cleavage by IRAP: up to 6 hr
Experimental: At each time point (0, 0.5, 1, 2, 4 & 6 hr), an aliquot containing 5 μg peptide was removed, and the reaction stopped by addition of 4 volumes methanol/1% trifluoroacetic acid (TPA). Samples were dried on a centrifugal vacuum evaporator prior to HPLC analysis with on-line mass spectrometric detector. […] Fragments were identified following mass spectral analysis, using Agilent ChemStation deconvolution software.

rats = settings: rat, in vivo, iv; cited from earlier work
IRAP (AT4 receptor) = target: T2, IRAP (AT4 receptor) (Homo sapiens, UniProt Q9UIQ6); assay: ^125I-Nle^1 Ang IV binding to membranes of HEK 293 cells transfected with IRAP cDNA
T2 construct: expressed in transfected cells; host or cells: HEK 293 cells (membranes)
T2 sequence (Q9UIQ6 whole entry): as above
Description: The amount of radioligand bound to the membranes from HEK 293 cells transfected with IRAP cDNA was expressed as a percentage of radioligand bound to membranes from HEK 293 cells transfected with control plasmids.

[3] = target: human insulin-regulated aminopeptidase (IRAP) / angiotensin IV (AT4) receptor (human) (UniProt Q9UIQ6); assay: cell-based or functional assay
Sequence of human insulin-regulated aminopeptidase (IRAP) / angiotensin IV (AT4) receptor (human) (Q9UIQ6 whole entry): as above

AT4 receptor = target: T3, AT4 receptor (Bos taurus, UniProt F1N1Q8); assay: AT4 radioreceptor assay, ^125I-Ang IV binding to bovine adrenal membranes
T3 construct: from tissue; host or cells: bovine adrenal gland membranes
T3 sequence (F1N1Q8 1-1022): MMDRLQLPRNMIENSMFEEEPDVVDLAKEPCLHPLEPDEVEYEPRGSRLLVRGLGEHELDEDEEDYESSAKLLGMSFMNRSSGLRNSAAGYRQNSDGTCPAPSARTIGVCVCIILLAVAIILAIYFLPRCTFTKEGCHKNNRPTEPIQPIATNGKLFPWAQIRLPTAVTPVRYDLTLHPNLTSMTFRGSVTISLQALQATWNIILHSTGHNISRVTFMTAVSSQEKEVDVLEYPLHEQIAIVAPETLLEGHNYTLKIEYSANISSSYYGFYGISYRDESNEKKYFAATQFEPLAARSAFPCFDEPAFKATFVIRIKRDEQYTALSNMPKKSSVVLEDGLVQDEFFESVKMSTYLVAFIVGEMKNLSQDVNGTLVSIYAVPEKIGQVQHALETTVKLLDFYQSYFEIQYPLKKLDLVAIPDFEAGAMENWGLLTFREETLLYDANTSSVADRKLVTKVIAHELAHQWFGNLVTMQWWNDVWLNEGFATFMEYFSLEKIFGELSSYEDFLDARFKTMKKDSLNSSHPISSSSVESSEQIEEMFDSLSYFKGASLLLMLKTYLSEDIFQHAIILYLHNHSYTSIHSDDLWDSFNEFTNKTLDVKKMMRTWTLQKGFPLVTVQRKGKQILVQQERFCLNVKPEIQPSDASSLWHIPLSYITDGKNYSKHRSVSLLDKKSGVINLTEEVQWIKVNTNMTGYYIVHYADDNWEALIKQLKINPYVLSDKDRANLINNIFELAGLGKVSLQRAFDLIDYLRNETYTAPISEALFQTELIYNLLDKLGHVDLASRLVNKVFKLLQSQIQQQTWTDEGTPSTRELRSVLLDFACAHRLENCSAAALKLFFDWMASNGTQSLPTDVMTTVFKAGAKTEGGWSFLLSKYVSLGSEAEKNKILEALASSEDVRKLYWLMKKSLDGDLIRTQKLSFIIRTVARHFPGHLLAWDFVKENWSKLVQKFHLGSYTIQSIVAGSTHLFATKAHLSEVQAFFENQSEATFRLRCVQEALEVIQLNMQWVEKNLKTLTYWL
Experimental: The AT4 radioreceptor assay was used to screen the sheep brain extracts for AT4 receptor modulatory activity. The membranes were prepared using bovine adrenal glands obtained from the abattoir. The adrenals were diced, homogenized in ice-cold hypotonic buffer (50 mM Tris, 5 mM EDTA, pH 7.4) and centrifuged for 10 min at 500 g. […] The resulting pellets were re-homogenized in hypotonic buffer. […] The samples were incubated for 2 h at 37° C., and the bound ligand was separated on Whatman GF/B glass fibre filters.

[4] = target: human insulin-regulated aminopeptidase (IRAP) / angiotensin IV (AT4) receptor (human) (UniProt Q9UIQ6); assay: radioligand displacement of 125I-Nle-Ang IV
[5] = target: human insulin-regulated aminopeptidase (IRAP) / angiotensin IV (AT4) receptor (human) (UniProt Q9UIQ6); assay: radioligand binding, HEK 293 and CHO cells transfected with IRAP cDNA
[6] = target: human insulin-regulated aminopeptidase (IRAP) / angiotensin IV (AT4) receptor (human) (UniProt Q9UIQ6); assay: competitive inhibition of L-leucine-β-naphthylamide cleavage by solubilised membranes of IRAP-transfected HEK 293 cells; Ki from IC50=Ki(1+[S]/Km)
3T3L1 cells = assay: 2-deoxyglucose uptake in differentiated 3T3L1 adipocytes
Experimental: The effect of IRAP inhibitors on the regulation of glucose uptake was determined in 3T3L1 cells. 3T3L1 fibroblasts were differentiated by the addition of DMEM containing 5% fetal calf serum, 4 μg/ml insulin, 0.25 mM dexamethasone and 0.5 mM 3-isobutyl-1-methyl-xanthine. […] The reaction was stopped after 10 min by washing the cells in PBS. The cells were then solubilized in 0.5 N NaOH and counted.

[7] = target: human insulin-regulated aminopeptidase (IRAP) / angiotensin IV (AT4) receptor (human) (UniProt Q9UIQ6); assay: cell-based or functional assay; remark: listed apart in the source
[8] = target: T4, human insulin-regulated aminopeptidase (IRAP) / angiotensin IV (AT4) receptor (human, UniProt Q9UIQ6 1-1025); assay: competition with 125I-Nle1 Ang IV on IRAP-transfected cells
T4 construct: whole, on cells; also called AT4 receptor/IRAP; hIRAP
T4 sequence (Q9UIQ6 whole entry): as the sequence (Q9UIQ6 whole entry) above

| Molecule | Substrate disappearance over 4 hr (IRAP [2]) | Products Identified (IRAP [2]) | cleavage by IRAP (IRAP [2]) | further results |
| --- | --- | --- | --- | --- |
| NC(=O)CC[C@@H]1NC(=O)[C@H](Cc2ccccc2)NC(=O)[C@H](Cc2ccc(O)cc2)NC(=O)[C@@H](N)CSSC[C@@H](C(=O)N2CCC[C@H]2C(=O)N[C@@H](CCCN=C(N)N)C(=O)NCC(N)=O)NC(=O)[C@H](CC(N)=O)NC1=O [AVP, arginine-vasopressin] | 58% | YFQNCytPRG-NH2; also recorded: FQNCytPRG-NH2 | most rapidly cleaved | IC50 (IRAP [1]): > 40000 nM |
| CC(C)[C@H](N)CN[C@@H](Cc1ccc(O)cc1)C(=O)N[C@H](CN[C@@H](Cc1c[nH]cn1)C(=O)N1CCC[C@H]1C(=O)N[C@@H](Cc1ccccc1)C(=O)O)C(C)C [Divalinal - Ang IV] | None | None | no cleavage | IC50 (IRAP [1]): 4000 nM; Ki (IRAP [1]): 2250 nM; type of inhibition of IRAP (IRAP [1]; Lineweaver-Burk analysis): competitive inhibition; effect on the swim maze enhancement by Nle-angiotensin IV (rats): blocked; IC50 (IRAP (AT4 receptor)): 845 nM |
| CC[C@H](C)[C@@H]1NC(=O)[C@H](Cc2ccc(O)cc2)NC(=O)[C@@H](N)CSSC[C@@H](C(=O)N2CCC[C@H]2C(=O)N[C@@H](CC(C)C)C(=O)NCC(N)=O)NC(=O)[C@H](CC(N)=O)NC(=O)[C@H](CCC(N)=O)NC1=O [OXY, oxytocin] | 37% | YIQNCytPLG-NH2 | most rapidly cleaved | – |
| CC(C)C[C@@H](N)[C@H](O)C(=O)N[C@H](C(=O)N[C@H](C(=O)N[C@@H](CC(=O)O)C(=O)O)C(C)C)C(C)C [amastatin] | – | – | – | inhibition at 100 µM (IRAP [1]; 100 μM amastatin): 25% |
| CC(C)C[C@H](NC(=O)[C@@H](O)[C@H](N)Cc1ccccc1)C(=O)O [bestatin] | – | – | – | inhibition at 10 µM (IRAP [1]; 10 μM bestatin): 60% |
| Ang I: angiotensin peptide (DRVYIHPFHL) | None | None | no cleavage | – |
| Angiotensin III (from UniProt P01019 26-32) (peptide) | – | – | – | Substrate disappearance over 4 hr [3]: 7% |
| GnRH: peptide tested as potential IRAP substrate | None | None | No cleavage | – |
| KYLPGPLQ | – | – | – | Ki (AT4 receptor; bovine adrenal membranes, synthetic peptides, read-out: affinity in competing for ^125I-Ang IV binding): 1 to 5 nM |
| Met-enkephalin | 65% | GGFM | most rapidly cleaved | – |
| Neurotensin (from UniProt P30990 151-163) (peptide) | – | – | – | Substrate disappearance over 4 hr [3]: 22% |
| Nle^1-Ang IV (Nle-YIHPF) (peptide) | – | – | – | IC50 inhibition leucine β-naphthylamide [3]: 600 nM; Substrate disappearance over 4 hr [3]: 16%; IC50 [4]: 3.32 nM; fold increase in specific binding sites over control cells [5]: 10 to 20 fold; Ki [6]: 340 nM |
| VYPWT | – | – | – | AT4 receptor/IRAP binding activity of fragment (AT4 receptor; structure-activity study on LVVYPWTQRF): retained full AT4 receptor/IRAP binding activity |
| [pGlu^4Cyt^6]AVP(4-9) ([pGlu]N[Cyt]PRG; ends and bridges not checked; also: Cyt6: cystine at position 6, partner not given here) [pGlu^4Cyt^6AVP] | None | None | No cleavage | – |
| acetylated AVP [AcAVP] | None | None | No cleavage | – |
| angiotensin II (DRVYIHPF) [Ang II] | None | None | no cleavage | – |
| angiotensin III [Ang III] | 7% (=UT) | RVYIHP | – | – |
| arginine-vasopressin (from UniProt P01185 20-28) (peptide) | – | – | – | IC50 of inhibition of L-leucine-β-naphthylamide cleavage [3]: > 40000 nM |
| divalinal-Ang IV (peptide) | – | – | – | IC50 inhibition leucine β-naphthylamide [3]: 4000 nM |
| insulin | – | – | – | glucose uptake under insulin stimulation (3T3L1 cells; 0.7 nM insulin): 13.5±2.6 pmol/min/well; glucose uptake under insulin stimulation (3T3L1 cells; 70 nM insulin): 19.7±1.18 pmol/min/well |
| oxytocin (from UniProt P01178 20-28) (peptide) | – | – | – | Substrate disappearance over 4 hr [3]: 37% |
| sar^1Ile^8-Ang II | None | None | – | – |
| α-Endorphin (YGGFMTSEKSQTPLVT) [16 residues, first five identical to met-enkephalin] | None | None | not cleaved at all | – |
| α-neo-Endorphin (YGGFLRKYPK) [opioid peptide, 10 residues] | 9% | GGFLRKYPK,; also recorded: GFLRKYPK, FLRKYPK | at least three N-terminal residues were cleaved | – |
| α-neo-Endorphin (from UniProt P01213 175-184) (peptide) | – | – | – | Substrate disappearance over 4 hr [3]: 9% |
| YGGFM (peptide, UniProt P01210 100-104, looked up) [Met-enkephalin] | – | – | – | Substrate disappearance over 4 hr [7]: 65% |
| B1 | – | – | – | binding result [8]: binds |

From patent US20050020519A1, “Modulation of insulin-regulated aminopeptidase (irap)/angiotensin iv (at4) receptor activity” (priority 2001, published 2005)
